Data from patent publication US20070072186A1, “Methods and agents for screening for compounds capable of modulating her2 expression” (priority 2003, published 2007).

Legend:
48-kDa polypeptide = experiment: UV-crosslinking of 32P-labeled RNA with SKBR3 cytoplasmic extracts; format: binding; settings: for competition for binding of the 48-kDa polypeptide to full-length, labeled Her2 3′ UTR: FIG. 10B; for UV-crosslinking of the 48-kDa polypeptide to labeled RNA: SKBR3 cytoplasmic extracts, FIG. 10A
Experimental: Total protein from cancer cell lines is incubated with 10 fmoles of ^32P-UTP-labeled RNA for 1 hour at 37° C. in a final volume of 20 μl using Binding Buffer (20 mM Hepes-KOH, pH 7.5, 2.5 mM MgCl2, 100 mM KCl, 20% glycerol, 0.5 mM dithiothreitol, protease inhibitor tablets). Reaction mixtures are UV-irradiated at 254 nm for 10 minutes with a StrataLinker® 11800 (Stratagene; La Jolla, Calif.) in Costar® 96-Well Cell Culture Clusters (CORNING COSTAR Co., Cambridge, Mass.) on ice. The reaction mixtures are then treated with RNAse A (2 mg/ml) for 30 minutes at 37° C. The samples are analyzed by 12% or 10-14% Criterion™ gels (Bio-Rad Laboratories, Inc., Hercules, Calif.) by Sodium Dodecyl Sulfate-Polyacrylamide gel electrophoresis (SDS-PAGE) and are detected by autoradiography.
To study the role of trans-acting factors in modulating interactions between 5′ and 3′ UTRs, in vitro transcripts are synthesized, labeled, and incubated with cytoplasmic extracts from SKBR3 cells. After UV-crosslinking, unprotected areas of labeled RNA are digested with RNAse A, and the remaining labeled RNA molecules are resolved on SDS-PAGE.
Instead, a minimal binding region of […], corresponding to the nucleotide sequence from residue 490 to residue 510 of a 3′ Her2 UTR, is essential for the 48-kDa polypeptide to UV-crosslink to a Her2 3′ UTR. […] In comparison, competition with a 500-fold molar excess of nucleic acid molecules with sequences derived from the Her2 5′ UTR is ineffective in titrating out the 48-kDa polypepide.

[1] = tested on: luciferase reporter gene linked to a 5′ her2 UTR; experiment: luciferase reporter constructs with her2 UTRs transfected into a panel of cell lines; format: cell-based; settings: luciferase activity 48 hours after transfection
Experimental: A luciferase reporter gene is linked to her2 UTRs to make various constructs (see FIG. 2). Each construct is transfected into a panel of cell-lines using Fugene® (Hoffmann-La Roche Inc., Nutley, N.J.), and the luciferase activity is measured 48 hours after transfection. The results are expressed as a fold-increase in luciferase activity over the repression caused by the 5′ her2 UTR linked to the luciferase reporter gene. A 5′ her2 UTR (SEQ ID NO: 6) represses translation of a luciferase reporter gene. […] The greatest modulation is observed in the mammalian cancer cell lines that over-express Her2 protein, SKBR-3 and BT-474, about 13-fold and about 10-fold, respectively, showing that the efficiency of translation of a luciferase reporter gene mRNA in Her2 positive cells is regulated by interactions of regions in the 5′ her2 UTR and the 3′ her2 UTR. Moreover, the effect is more pronounced in high Her2 expressing cells relative to low Her2 expressing cell lines, especially for breast cancer cells.

[2] = tested on: capped-5′+3′ UTR-luciferase RNA; experiment: in vitro rabbit reticulocyte translation of capped reporter RNA in the presence of competitor RNA; format: biochemical; settings: for inhibition of translation of capped-5′+3′ UTR-luciferase RNA relative to absence of competitor RNA: 5-fold molar excess of competitor RNA, 60 minutes at 37° C., FIG. 1
Experimental: A 73-residue region from a 3′ her2 UTR (SEQ ID NO: 1) and an N-terminal 310-residue region from a 3′ her2 UTR (SEQ ID NO: 5) are cloned into a construct downstream of a T7-promoter. RNA encoded for by these regions is synthesized using a T7-in vitro transcription kit (Ambion, Inc.; Austin, Tex.).
To quantitate the maximum level of translation, a capped-5′+3′ UTR-luciferase RNA (0.057 pmoles) is translated in an in vitro rabbit reticulocyte translation system for 60 minutes at 37° C. Then, a capped-5′+3′ UTR-luciferase RNA is translated in the presence of between a 5- to 500-fold molar excess of RNA from either the 73-residue region from a 3′ her2 UTR (SEQ ID NO: 1) or the N-terminal 310-residue region from a 3′ her2 UTR (SEQ ID NO: 5) under the same conditions.
Capped, in vitro-transcribed Her2 5′ UTR-luciferase-Her2 3′ UTR (5H3H-Luc) and vector only-luciferase (Vector-Luc) are translated in the presence or absence of competitor RNA fragments derived from a Her-2 3′ UTR. Nucleic acid molecules derived from nucleotides 468-540 of a Her2 3′ UTR (468-540) and from residues 468-615 of a Her2 3′ UTR (468-615) each contain the 73-nucleotide sequence (SEQ ID NO:1) essential for suppression of 5′ Her2 UTR repression. […] The percentage of inhibition of expression is less in the presence of the 1-310 fragment with respect to the percentage of inhibition of expression in the presence of either of the nucleic acid molecules containing SEQ ID NO: 1, 468-615 and 468-540. The percentage of inhibition for the 1-310 fragment is dose-dependent, whereas even at only a 5-fold molar excess of competitor RNA conatining SEQ ID NO: 1, expression is only at 25% of the maximum level of translation.

[3] = tested on: luciferase reporter gene linked to a 5′ her2 UTR; experiment: luciferase constructs with 3′ her2 UTR variants transfected into SKBR3 cells; format: cell-based; settings: 48 hours after transfection
Experimental: A luciferase reporter gene is linked to 3′ her2 UTR variants to make various constructs (see FIG. 6). Each construct is transfected into cell-lines, SKBR3 cells in particular, using Fugene® (Hoffmann-La Roche Inc., Nutley, N.J.), and the luciferase activity is measured 48 hours after transfection. The results are expressed as a fold-increase in luciferase activity over the repression caused by a 5′ her2 UTR (SEQ ID NO: 6) linked to the luciferase reporter gene (see FIG. 6). A 5′ her2 UTR represses translation of a reporter gene, such as luciferase.

Ship-2 uORF = experiment: chimeric luciferase constructs with Ship-2 5′ UTR in SKBR3 cells; format: cell-based; settings: in combination with a Ship-2 5′ UTR, FIG. 7
Excerpt: Ship-2 mRNA contains a 33 nucleotide uORF (encoding 10 amino acids) that is located 14 nucleotides upstream of the main ORF. The uORF strongly represses translation of the main ORF.
The presence of TRE1 in the 3′ UTR, when in combination with a Ship-2 5′ UTR, increases expression of luciferase about 5-fold relative to luciferase being flanked by 3′ and 5′ Ship-2 UTRs. Luciferase expression increases when flanked by a 5′ Ship-2 UTR and a chimeric 3′ UTR, consisting of 328 residues of Ship-2 3′ UTR flanked by the 5′ and 3′ end seqeunces of the Her-23′ UTR, relative to luciferase being flanked by 3′ and 5′ Ship-2 UTRs. […] The presence of the 3′ Her2 UTR residues 1-110 (SEQ ID NO: 28) in the chimeric 3′ UTR results in a slight increase in luciferase expression relative to 3′ Ship-2 UTR. Suppression of translational repression occurs in cells with chimeric constructs expressing a Ship-2 3′ UTR containing only TRE1 (SEQ ID NO: 1) from a Her-23′ UTR.

B1: Her2 5′ UTR: naturally occurring Her2 5′ UTR; RNA probe and competitor in UV-crosslinking (nucleic acid)
DNA: GGCTGCTTGAGGAAGTATAAGAATGAAGTTGTGAAGCTGAGATTCCCCTCCATTGGGACCGGAGAAACCAGGGGAGCCCCCCGGGCAGCCGCGCGCCCCTTCCCACGGGGCCCTTTACTGCGCCGCGCGCCCGGCCCCCACCCCTCGCAGCACCCCGCGCCCCGCGCCCTCCCAGCCGGGTCCAGCCGGAGCCATGGGGCCGGAGCCGCAGTGAGCACC
competition for binding of the 48-kDa polypeptide to full-length, labeled Her2 3′ UTR (48-kDa polypeptide; 500-fold molar excess of competitor): ineffective | UV-crosslinking of the 48-kDa polypeptide to labeled RNA (48-kDa polypeptide): does not crosslink

B2: 3′ her2 UTR: naturally occurring Her2 3′ UTR, linked downstream of luciferase in reporter constructs (nucleic acid)
DNA: TGAACCAGAAGGCCAAGTCCGCAGAAGCCCTGATGTGTCCTCAGGGAGCAGGGAAGGCCTGACTTCTGCTGGCATCAAGAGGTGGGAGGGCCCTCCGACCACTTCCAGGGGAACCTGCCATGCCAGGAACCTGTCCTAAGGAACCTTCCTTCCTGCTTGAGTTCCCAGATGGCTGGAAGGGGTCCAGCCTCGTTGGAAGAGGAACAGCACTGGGGAGTCTTTGTGGATTCTGAGGCCCTGCCCAATGAGACTCTAGGGTCCAGTGGATGCCACAGCCCAGCTTGGCCCTTTCCTTCCAGATCCTGGGTACTGAAAGCCTTAGGGAAGCTGGCCTGAGAGGGGAAGCGGCCCTAAGGGAGTGTCTAAGAACAAAAGCGACCCATTCAGAGACTGTCCCTGAAACCTAGTACTGCCCCCCATGAGGAAGGAACAGCAATGGTGTCAGTATCCAGGCTTTGTACAGAGTGCTTTTCTGTTTAGTTTTTACTTTTTTTGTTTTGTTTTTTTAAAGACGAAATAAAGACCCAGGGGAGAATGGGTGTTGTATGGGGAGGCAAGTGTGGGGGGTCCTTCTCCACACCCACTTTGTCCATTTGCAAATATATTTTGGAAAAC
Fold-increase over 5′ UTR Average ([1]; 293T): 1.54 ± 1.0 | Fold-increase over 5′ UTR Average ([1]; HeLa): 2.23 ± 0.5 | Fold-increase over 5′ UTR Average ([1]; Hs578.1): 2 ± 0.5 | UV-crosslinking of the 48-kDa polypeptide to labeled RNA (48-kDa polypeptide): crosslinks

B3: SEQ ID NO: 5: first 310 nucleotides of the Her2 3′ UTR, does not contain SEQ ID NO: 1; competitor RNA (nucleic acid)
DNA: TGAACCAGAAGGCCAAGTCCGCAGAAGCCCTGATGTGTCCTCAGGGAGCAGGGAAGGCCTGACTTCTGCTGGCATCAAGAGGTGGGAGGGCCCTCCGACCACTTCCAGGGGAACCTGCCATGCCAGGAACCTGTCCTAAGGAACCTTCCTTCCTGCTTGAGTTCCCAGATGGCTGGAAGGGGTCCAGCCTCGTTGGAAGAGGAACAGCACTGGGGAGTCTTTGTGGATTCTGAGGCCCTGCCCAATGAGACTCTAGGGTCCAGTGGATGCCACAGCCCAGCTTGGCCCTTTCCTTCCAGATCCTGGGTAC
inhibition of translation of capped-5′+3′ UTR-luciferase RNA relative to absence of competitor RNA [2]: not significantly inhibited | percentage of inhibition of expression, dependence on amount of competitor ([2]; competitor RNA, FIG. 9): dose-dependent

B4: SEQ ID NO: 29: Her2 3′ UTR variant with nucleotides 1-110 deleted at the 5′ end, in a luciferase construct (nucleic acid)
DNA: CCTGCCATGCCAGGAACCTGTCCTAAGGAACCTTCCTTCCTGCTTGAGTTCCCAGATGGCTGGAAGGGGTCCAGCCTCGTTGGAAGAGGAACAGCACTGGGGAGTCTTTGTGGATTCTGAGGCCCTGCCCAATGAGACTCTAGGGTCCAGTGGATGCCACAGCCCAGCTTGGCCCTTTCCTTCCAGATCCTGGGTACTGAAAGCCTTAGGGAAGCTGGCCTGAGAGGGGAAGCGGCCCTAAGGGAGTGTCTAAGAACAAAAGCGACCCATTCAGAGACTGTCCCTGAAACCTAGTACTGCCCCCCATGAGGAAGGAACAGCAATGGTGTCAGTATCCAGGCTTTGTACAGAGTGCTTTTCTGTTTAGTTTTTACTTTTTTTGTTTTGTTTTTTTAAAGACGAAATAAAGACCCAGGGGAGAATGGGTGTTGTATGGGGAGGCAAGTGTGGGGGGTCCTTCTCCACACCCACTTTGTCCATTTGCAAATATATTTTGGAAAAC
modifications: luciferase construct
notes: Her2 3′ UTR variant with nucleotides 1-110 deleted at the 5′ end, in a luciferase construct
fold-increase in luciferase expression over 5′ her2 UTR+Luc [3]: 1.7±0.9 fold

B5: SEQ ID NO: 1: 73-residue region (residues 468-540) from a 3′ her2 UTR, translational regulatory element TRE1; used as competitor RNA (nucleic acid)
DNA: CTTTTCTGTTTAGTTTTTACTTTTTTTGTTTTGTTTTTTTAAAGACGAAATAAAGACCCAGGGGAGAATGGGT
modifications: competitor RNA from UTR region, further chemistry not given here
increase of luciferase expression relative to luciferase flanked by 3′ and 5′ Ship-2 UTRs (Ship-2 uORF): about 5 fold | inhibition of translation of capped-5′+3′ UTR-luciferase RNA relative to absence of competitor RNA [2]: about 75% | competition for binding of the 48-kDa polypeptide to full-length, labeled Her2 3′ UTR (48-kDa polypeptide; 50-fold molar excess of unlabeled competitor): prevents binding | UV-crosslinking of the 48-kDa polypeptide to labeled RNA (48-kDa polypeptide): crosslinks
